The MegaScale stability set (Tsuboyama et al. 2023)

B1: 2K2A (parent)
chain: ELREAFRLYDKEGNGYISTDVMREILAELDETLSSEDLDAMIDEIDADGSGTVDFEEFMGVMT

Variants of: B1
Assay: folding stability dG (cDNA display proteolysis); higher = more stable
Settings: PBS, room temperature

In order of falling “folding stability dG” value:
1. ELREAFRLYDKEGNGYISTDVMREILAELDETLSSEDLDRMIDEIDADGSGTVDFEEFMGVMT [A40R]  2.31 kcal/mol
2. ELREAFRLYDKEGNGYISTDVMREILAELDETLSSEDLDHMIDEIDADGSGTVDFEEFMGVMT [A40H]  2.19 kcal/mol
3. ELREAFRLYDKEGNGYISTDVMREILAELDETLSSEDLDKMIDEIDADGSGTVDFEEFMGVMT [A40K]  2.11 kcal/mol
4. ELREAFRLYDKEGNGYISTDVMREILAELDETLSSEQLDAMIDEIDADGSGTVDFEEFMGVMT [D37Q]  2.1 kcal/mol
5. ELREAFRLYDKEGNGYISTDVMREILAELDETLSSEELDAMIDEIDADGSGTVDFEEFMGVMT [D37E]  2.08 kcal/mol
6. ELREAFRLYDKEGNGYISTDVMREILAELDETLSSECLDAMIDEIDADGSGTVDFEEFMGVMT [D37C]  2 kcal/mol
7. ELREAFRLYDKEGNGYISTDVMREILAELDETLSSEDIDAMIDEIDADGSGTVDFEEFMGVMT [L38I]  1.99 kcal/mol
8. ELREAFRLYDKEGNGYISTDVMREILAELDETLSSEMLDAMIDEIDADGSGTVDFEEFMGVMT [D37M]  1.96 kcal/mol
9. ELREAFRLYDKEGNGYISTDVMREILAELDETLSSEDLDCMIDEIDADGSGTVDFEEFMGVMT [A40C]  1.93 kcal/mol
10. ELREAFRLYDKEGNGYISTDVMREILAELDETLSSSDLDAMIDEIDADGSGTVDFEEFMGVMT [E36S]  1.88 kcal/mol
11. ELREAFRLYDKEGNGYISTDVMREILAELDETLSSWDLDAMIDEIDADGSGTVDFEEFMGVMT [E36W]  1.87 kcal/mol
12. ELREAFRLYDKEGNGYISTDVMREILAELDETLSSEALDAMIDEIDADGSGTVDFEEFMGVMT [D37A]  1.86 kcal/mol
13. ELREAFRLYDKEGNGYISTDVMREILAELDETLSSEDLDLMIDEIDADGSGTVDFEEFMGVMT [A40L]  1.85 kcal/mol
14. ELREAFRLYDKEGNGYISTDVMREILAELDETLSSQDLDAMIDEIDADGSGTVDFEEFMGVMT [E36Q]  1.82 kcal/mol
15. ELREAFRLYDKEGNGYISTDVMREILAELDETLSSRDLDAMIDEIDADGSGTVDFEEFMGVMT [E36R]  1.82 kcal/mol
16. ELREAFRLYDKEGNGYISTDVMREILAELDETLSSTDLDAMIDEIDADGSGTVDFEEFMGVMT [E36T]  1.82 kcal/mol
17. ELREAFRLYDKEGNGYISTDVMREILAELDETLSSERLDAMIDEIDADGSGTVDFEEFMGVMT [D37R]  1.82 kcal/mol
18. ELREAFRLYDKEGNGYISTDVMREILAELDETLSSYDLDAMIDEIDADGSGTVDFEEFMGVMT [E36Y]  1.81 kcal/mol
19. ELREAFRLYDKEGNGYISTDVMREILAELDETLSSEDLDQMIDEIDADGSGTVDFEEFMGVMT [A40Q]  1.8 kcal/mol
20. ELREAFRLYDKEGNGYISTDVMREILAELDETLSSEDLDFMIDEIDADGSGTVDFEEFMGVMT [A40F]  1.77 kcal/mol
21. ELREAFRLYDKEGNGYISTDVMREILAELDETLSSEDLDIMIDEIDADGSGTVDFEEFMGVMT [A40I]  1.77 kcal/mol
22. ELREAFRLYDKEGNGYISTDVMREILAELDETLSSETLDAMIDEIDADGSGTVDFEEFMGVMT [D37T]  1.76 kcal/mol
23. ELREAFRLYDKEGNGYISTDVMREILAELDETLSSEDLDMMIDEIDADGSGTVDFEEFMGVMT [A40M]  1.76 kcal/mol
24. ELREAFRLYDKEGNGYISTDVMREILAELDETLSSEDLDNMIDEIDADGSGTVDFEEFMGVMT [A40N]  1.73 kcal/mol
25. ELREAFRLYDKEGNGYISTDVMREILAELDETLSSEDLDSMIDEIDADGSGTVDFEEFMGVMT [A40S]  1.73 kcal/mol
26. ELREAFRLYDKEGNGYISTDVMREILAELDETLSSEKLDAMIDEIDADGSGTVDFEEFMGVMT [D37K]  1.71 kcal/mol
27. ELREAFRLYDKEGNGYISTDVMREILAELDETLSSEDLDYMIDEIDADGSGTVDFEEFMGVMT [A40Y]  1.71 kcal/mol
28. ELREAFRLYDKEGNGYISTDVMREILAELDETLSSVDLDAMIDEIDADGSGTVDFEEFMGVMT [E36V]  1.69 kcal/mol
29. ELREAFRLYDKEGNGYISTDVMREILAELDETLSSEDLDVMIDEIDADGSGTVDFEEFMGVMT [A40V]  1.69 kcal/mol
30. ELREAFRLYDKEGNGYISTDVMREILAELDETLSSEVLDAMIDEIDADGSGTVDFEEFMGVMT [D37V]  1.66 kcal/mol
31. ELREAFRLYDKEGNGYISTDVMREILAELDETLSSEILDAMIDEIDADGSGTVDFEEFMGVMT [D37I]  1.65 kcal/mol
32. ELREAFRLYDKEGNGYISTDVMREILAELDETLSSEDLDWMIDEIDADGSGTVDFEEFMGVMT [A40W]  1.6 kcal/mol
33. ELREAFRLYDKEGNGYISTDVMREILAELDETLSSELLDAMIDEIDADGSGTVDFEEFMGVMT [D37L]  1.59 kcal/mol
34. ELREAFRLYDKEGNGYISTDVMREILAELDETLSSEDLNAMIDEIDADGSGTVDFEEFMGVMT [D39N]  1.58 kcal/mol
35. ELREAFRLYDKEGNGYISTDVMREILAELDETLSSEDLQAMIDEIDADGSGTVDFEEFMGVMT [D39Q]  1.57 kcal/mol
36. ELREAFRLYDKEGNGYISTDVMREILAELDETLSSEDLDTMIDEIDADGSGTVDFEEFMGVMT [A40T]  1.57 kcal/mol
37. ELREAFRLYDKEGNGYISTDVMREILAELDETLSSEWLDAMIDEIDADGSGTVDFEEFMGVMT [D37W]  1.56 kcal/mol
38. ELREAFRLYDKEGNGYISTDVMREILAELDETLSSESLDAMIDEIDADGSGTVDFEEFMGVMT [D37S]  1.52 kcal/mol
39. ELREAFRLYDKEGNGYISTDVMREILAELDETLSSEDVDAMIDEIDADGSGTVDFEEFMGVMT [L38V]  1.52 kcal/mol
40. ELREAFRLYDKEGNGYISTDVMREILAELDETLSSEDLDEMIDEIDADGSGTVDFEEFMGVMT [A40E]  1.51 kcal/mol
41. ELREAFRLYDKEGNGYISTDVMREILAELDETLSSEDLAAMIDEIDADGSGTVDFEEFMGVMT [D39A]  1.48 kcal/mol
42. ELREAFRLYDKEGNGYISTDVMREILAELDETLSSEDLKAMIDEIDADGSGTVDFEEFMGVMT [D39K]  1.48 kcal/mol
43. ELREAFRLYDKEGNGYISTDVMREILAELDETLSSEDLRAMIDEIDADGSGTVDFEEFMGVMT [D39R]  1.41 kcal/mol
44. ELREAFRLYDKEGNGYISTDVMREILAELDETLSSEHLDAMIDEIDADGSGTVDFEEFMGVMT [D37H]  1.4 kcal/mol
45. ELREAFRLYDKEGNGYISTDVMREILAELDETLSSEDLEAMIDEIDADGSGTVDFEEFMGVMT [D39E]  1.4 kcal/mol
46. ELREAFRLYDKEGNGYISTDVMREILAELDETLSSEDLDDMIDEIDADGSGTVDFEEFMGVMT [A40D]  1.4 kcal/mol
47. ELREAFRLYDKEGNGYISTDVMREILAELDETLSSEDLSAMIDEIDADGSGTVDFEEFMGVMT [D39S]  1.39 kcal/mol
48. ELREAFRLYDKEGNGYISTDVMREILAELDETLSSEDLDACIDEIDADGSGTVDFEEFMGVMT [M41C]  1.37 kcal/mol
49. ELREAFRLYDKEGNGYISTDVMREILAELDETLSSEDLDGMIDEIDADGSGTVDFEEFMGVMT [A40G]  1.34 kcal/mol
50. ELREAFRLYDKEGNGYISTDVMREILAELDETLSSEDLIAMIDEIDADGSGTVDFEEFMGVMT [D39I]  1.33 kcal/mol
51. ELREAFRLYDKEGNGYISTDVMREILAELDETLSSENLDAMIDEIDADGSGTVDFEEFMGVMT [D37N]  1.32 kcal/mol
52. ELREAFRLYDKEGNGYISTDVMREILAELDETLSSEDLMAMIDEIDADGSGTVDFEEFMGVMT [D39M]  1.32 kcal/mol
53. ELREAFRLYDKEGNGYISTDVMREILAELDETLSSEDLLAMIDEIDADGSGTVDFEEFMGVMT [D39L]  1.3 kcal/mol
54. ELREAFRLYDKEGNGYISTDVMREILAELDETLSSEDLTAMIDEIDADGSGTVDFEEFMGVMT [D39T]  1.3 kcal/mol
55. ELREAFRLYDKEGNGYISTDVMREILAELDETLSSEDLDAAIDEIDADGSGTVDFEEFMGVMT [M41A]  1.27 kcal/mol
56. ELREAFRLYDKEGNGYISTDVMREILAELDETLSSEYLDAMIDEIDADGSGTVDFEEFMGVMT [D37Y]  1.26 kcal/mol
57. ELREAFRLYDKEGNGYISTDVMREILAELDETLSSEDMDAMIDEIDADGSGTVDFEEFMGVMT [L38M]  1.26 kcal/mol
58. ELREAFRLYDKEGNGYISTDVMREILAELDETLSSEFLDAMIDEIDADGSGTVDFEEFMGVMT [D37F]  1.22 kcal/mol
59. ELREAFRLYDKEGNGYISTDVMREILAELDETLSSEDLWAMIDEIDADGSGTVDFEEFMGVMT [D39W]  1.22 kcal/mol
60. ELREAFRLYDKEGNGYISTDVMREILAELDETLSSEDLCAMIDEIDADGSGTVDFEEFMGVMT [D39C]  1.16 kcal/mol
61. ELREAFRLYDKEGNGYISTDVMREILAELDETLSSEGLDAMIDEIDADGSGTVDFEEFMGVMT [D37G]  1.15 kcal/mol
62. ELREAFRLYDKEGNGYISTDVMREILAELDETLSSEDLFAMIDEIDADGSGTVDFEEFMGVMT [D39F]  1.15 kcal/mol
63. ELREAFRLYDKEGNGYISTDVMREILAELDETLSSEDLHAMIDEIDADGSGTVDFEEFMGVMT [D39H]  1.13 kcal/mol
64. ELREAFRLYDKEGNGYISTDVMREILAELDETLSSEDLYAMIDEIDADGSGTVDFEEFMGVMT [D39Y]  1.06 kcal/mol
65. ELREAFRLYDKEGNGYISTDVMREILAELDETLSSPDLDAMIDEIDADGSGTVDFEEFMGVMT [E36P]  1.04 kcal/mol
66. ELREAFRLYDKEGNGYISTDVMREILAELDETLSSEDLVAMIDEIDADGSGTVDFEEFMGVMT [D39V]  0.996 kcal/mol
67. ELREAFRLYDKEGNGYISTDVMREILAELDETLSSEDLGAMIDEIDADGSGTVDFEEFMGVMT [D39G]  0.971 kcal/mol
68. ELREAFRLYDKEGNGYISTDVMREILAELDETLSSEDWDAMIDEIDADGSGTVDFEEFMGVMT [L38W]  0.599 kcal/mol
69. ELREAFRLYDKEGNGYISTDVMREILAELDETLSSEDFDAMIDEIDADGSGTVDFEEFMGVMT [L38F]  0.593 kcal/mol
70. ELREAFRLYDKEGNGYISTDVMREILAELDETLSSEDRDAMIDEIDADGSGTVDFEEFMGVMT [L38R]  0.432 kcal/mol
71. ELREAFRLYDKEGNGYISTDVMREILAELDETLSSEDCDAMIDEIDADGSGTVDFEEFMGVMT [L38C]  0.399 kcal/mol
72. ELREAFRLYDKEGNGYISTDVMREILAELDETLSSEDKDAMIDEIDADGSGTVDFEEFMGVMT [L38K]  0.304 kcal/mol
73. ELREAFRLYDKEGNGYISTDVMREILAELDETLSSEDADAMIDEIDADGSGTVDFEEFMGVMT [L38A]  0.262 kcal/mol
74. ELREAFRLYDKEGNGYISTDVMREILAELDETLSSEDYDAMIDEIDADGSGTVDFEEFMGVMT [L38Y]  0.134 kcal/mol
75. ELREAFRLYDKEGNGYISTDVMREILAELDETLSSEDTDAMIDEIDADGSGTVDFEEFMGVMT [L38T]  0.114 kcal/mol
76. ELREAFRLYDKEGNGYISTDVMREILAELDETLSSEDQDAMIDEIDADGSGTVDFEEFMGVMT [L38Q]  0.089 kcal/mol
77. ELREAFRLYDKEGNGYISTDVMREILAELDETLSSEDLPAMIDEIDADGSGTVDFEEFMGVMT [D39P]  -0.067 kcal/mol
78. ELREAFRLYDKEGNGYISTDVMREILAELDETLSSEPLDAMIDEIDADGSGTVDFEEFMGVMT [D37P]  -0.169 kcal/mol
79. ELREAFRLYDKEGNGYISTDVMREILAELDETLSSEDPDAMIDEIDADGSGTVDFEEFMGVMT [L38P]  -0.322 kcal/mol
80. ELREAFRLYDKEGNGYISTDVMREILAELDETLSSEDSDAMIDEIDADGSGTVDFEEFMGVMT [L38S]  -0.47 kcal/mol
81. ELREAFRLYDKEGNGYISTDVMREILAELDETLSSEDHDAMIDEIDADGSGTVDFEEFMGVMT [L38H]  -0.529 kcal/mol
82. ELREAFRLYDKEGNGYISTDVMREILAELDETLSSEDEDAMIDEIDADGSGTVDFEEFMGVMT [L38E]  -0.551 kcal/mol
83. ELREAFRLYDKEGNGYISTDVMREILAELDETLSSEDLDPMIDEIDADGSGTVDFEEFMGVMT [A40P]  -0.715 kcal/mol
84. ELREAFRLYDKEGNGYISTDVMREILAELDETLSSEDGDAMIDEIDADGSGTVDFEEFMGVMT [L38G]  -0.721 kcal/mol
85. ELREAFRLYDKEGNGYISTDVMREILAELDETLSSEDDDAMIDEIDADGSGTVDFEEFMGVMT [L38D]  -0.787 kcal/mol
